# Results taken from IntAct's records for PubMed 12692135.
# B1: Tumor protein 63 (Homo sapiens), Q9H3D4-2 (parent)
# chain: MLYLENNAQTQFSEPQYTNLGLLNSMDQQIQNGSSSTSPYNTDHAQNSVTAPSPYAQPSSTFDALSPSPAIPSNTDYPGPHSFDVSFQQSSTAKSATWTYSTELKKLYCQIAKTCPIQIKVMTPPPQGAVIRAMPVYKKAEHVTEVVKRCPNHELSREFNEGQIAPPSHLIRVEGNSHAQYVEDPITGRQSVLVPYEPPQVGTEFTTVLYNFMCNSSCVGGMNRRPILIIVTLETRDGQVLGRRCFEARICACPGRDRKADEDSIRKQQVSDSTKNGDGTKRPFRQNTHGIQMTSIKKRRSPDDELLYLPVRGRETYEMLLKIKESLELMQYLPQHTIETYRQQQQQQHQHLLQKQTSIQSPSSYGNSSPPLNKMNSMNKLPSVSQLINPQQRNALTPTTIPDGMGANIPMMGTHMPMAGDMNGLSPTQALPPPLSMPSTSHCTPPPPYPTDCSIVSFLARLGCSSCLDYFTTQGLTTIYQIEHYSMDDLASLKIPEQFRHAIWKGILDHRQLHEFSSPSHLLRTPSSASTVSVGSSETRGERVIDAVRFTLRQTISFPPRDEWNDFNFDMDARRNKQQRIKEEGE
# B2: Tumor protein 63 (Homo sapiens), Q9H3D4 (parent)
# chain: MNFETSRCATLQYCPDPYIQRFVETPAHFSWKESYYRSTMSQSTQTNEFLSPEVFQHIWDFLEQPICSVQPIDLNFVDEPSEDGATNKIEISMDCIRMQDSDLSDPMWPQYTNLGLLNSMDQQIQNGSSSTSPYNTDHAQNSVTAPSPYAQPSSTFDALSPSPAIPSNTDYPGPHSFDVSFQQSSTAKSATWTYSTELKKLYCQIAKTCPIQIKVMTPPPQGAVIRAMPVYKKAEHVTEVVKRCPNHELSREFNEGQIAPPSHLIRVEGNSHAQYVEDPITGRQSVLVPYEPPQVGTEFTTVLYNFMCNSSCVGGMNRRPILIIVTLETRDGQVLGRRCFEARICACPGRDRKADEDSIRKQQVSDSTKNGDGTKRPFRQNTHGIQMTSIKKRRSPDDELLYLPVRGRETYEMLLKIKESLELMQYLPQHTIETYRQQQQQQHQHLLQKQTSIQSPSSYGNSSPPLNKMNSMNKLPSVSQLINPQQRNALTPTTIPDGMGANIPMMGTHMPMAGDMNGLSPTQALPPPLSMPSTSHCTPPPPYPTDCSIVSFLARLGCSSCLDYFTTQGLTTIYQIEHYSMDDLASLKIPEQFRHAIWKGILDHRQLHEFSSPSHLLRTPSSASTVSVGSSETRGERVIDAVRFTLRQTISFPPRDEWNDFNFDMDARRNKQQRIKEEGE
# B3: Tumor protein 63 (Homo sapiens), Q9H3D4 (parent)
# chain: B2 chain
# partner: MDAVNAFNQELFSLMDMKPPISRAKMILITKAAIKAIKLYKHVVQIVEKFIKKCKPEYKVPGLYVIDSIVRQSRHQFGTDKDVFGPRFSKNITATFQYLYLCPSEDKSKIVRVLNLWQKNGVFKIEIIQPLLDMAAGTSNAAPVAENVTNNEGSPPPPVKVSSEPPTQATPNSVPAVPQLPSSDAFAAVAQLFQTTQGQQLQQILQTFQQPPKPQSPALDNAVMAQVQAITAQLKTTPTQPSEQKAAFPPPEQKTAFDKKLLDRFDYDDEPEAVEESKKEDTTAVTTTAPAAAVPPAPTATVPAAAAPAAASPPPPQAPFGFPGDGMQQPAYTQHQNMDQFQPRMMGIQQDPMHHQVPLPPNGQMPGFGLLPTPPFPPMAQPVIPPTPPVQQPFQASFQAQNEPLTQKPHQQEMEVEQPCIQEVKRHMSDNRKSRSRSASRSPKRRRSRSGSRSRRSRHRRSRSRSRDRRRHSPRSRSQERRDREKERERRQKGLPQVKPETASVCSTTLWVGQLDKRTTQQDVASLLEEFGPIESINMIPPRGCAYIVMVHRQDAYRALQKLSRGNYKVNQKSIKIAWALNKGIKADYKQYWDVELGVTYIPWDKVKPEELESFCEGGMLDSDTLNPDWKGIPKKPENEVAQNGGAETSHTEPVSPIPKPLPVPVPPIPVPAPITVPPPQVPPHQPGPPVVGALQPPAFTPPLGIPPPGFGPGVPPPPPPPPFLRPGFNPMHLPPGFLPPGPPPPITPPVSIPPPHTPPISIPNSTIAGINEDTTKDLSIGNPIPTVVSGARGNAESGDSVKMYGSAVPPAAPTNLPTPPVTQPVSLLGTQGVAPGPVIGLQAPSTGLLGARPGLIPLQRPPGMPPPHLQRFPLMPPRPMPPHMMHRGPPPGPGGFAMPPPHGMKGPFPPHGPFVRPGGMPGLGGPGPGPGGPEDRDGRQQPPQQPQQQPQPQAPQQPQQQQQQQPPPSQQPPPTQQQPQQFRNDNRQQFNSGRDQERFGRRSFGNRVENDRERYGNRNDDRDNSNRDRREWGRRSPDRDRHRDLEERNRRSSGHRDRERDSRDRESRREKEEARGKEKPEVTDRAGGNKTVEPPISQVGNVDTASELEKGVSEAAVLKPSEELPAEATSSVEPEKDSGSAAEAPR
# Variants of: B1
# Details: with roaa_human HNRNPAB
row,effect of a mutation on the interaction,Variant
1,disrupting interaction strength,MLYLENNAQTQFSEPQYTNLGLLNSMDQQIQNGSSSTSPYNTDHAQNSVTAPSPYAQPSSTFDALSPSPAIPSNTDYPGPHSFDVSFQQSSTAKSATWTYSTELKKLYCQIAKTCPIQIKVMTPPPQGAVIRAMPVYKKAEHVTEVVKRCPNHELSREFNEGQIAPPSHLIRVEGNSHAQYVEDPITGRQSVLVPYEPPQVGTEFTTVLYNFMCNSSCVGGMNRRPILIIVTLETRDGQVLGRRCFEARICACPGRDRKADEDSIRKQQVSDSTKNGDGTKRPFRQNTHGIQMTSIKKRRSPDDELLYLPVRGRETYEMLLKIKESLELMQYLPQHTIETYRQQQQQQHQHLLQKQTSIQSPSSYGNSSPPLNKMNSMNKLPSVSQLINPQQRNALTPTTIPDGMGANIPMMGTHMPMAGDMNGLSPTQALPPPLSMPSTSHCTPPPPYPTDCSIVSFLARLGCSSCLDYFTTQVLTTIYQIEHYSMDDLASLKIPEQFRHAIWKGILDHRQLHEFSSPSHLLRTPSSASTVSVGSSETRGERVIDAVRFTLRQTISFPPRDEWNDFNFDMDARRNKQQRIKEEGE [G475V]
2,disrupting interaction strength,MLYLENNAQTQFSEPQYTNLGLLNSMDQQIQNGSSSTSPYNTDHAQNSVTAPSPYAQPSSTFDALSPSPAIPSNTDYPGPHSFDVSFQQSSTAKSATWTYSTELKKLYCQIAKTCPIQIKVMTPPPQGAVIRAMPVYKKAEHVTEVVKRCPNHELSREFNEGQIAPPSHLIRVEGNSHAQYVEDPITGRQSVLVPYEPPQVGTEFTTVLYNFMCNSSCVGGMNRRPILIIVTLETRDGQVLGRRCFEARICACPGRDRKADEDSIRKQQVSDSTKNGDGTKRPFRQNTHGIQMTSIKKRRSPDDELLYLPVRGRETYEMLLKIKESLELMQYLPQHTIETYRQQQQQQHQHLLQKQTSIQSPSSYGNSSPPLNKMNSMNKLPSVSQLINPQQRNALTPTTIPDGMGANIPMMGTHMPMAGDMNGLSPTQALPPPLSMPSTSHCTPPPPYPTDCSIVSFLARLGCSSVLDYFTTQGLTTIYQIEHYSMDDLASLKIPEQFRHAIWKGILDHRQLHEFSSPSHLLRTPSSASTVSVGSSETRGERVIDAVRFTLRQTISFPPRDEWNDFNFDMDARRNKQQRIKEEGE [C467V]
3,disrupting interaction strength,MLYLENNAQTQFSEPQYTNLGLLNSMDQQIQNGSSSTSPYNTDHAQNSVTAPSPYAQPSSTFDALSPSPAIPSNTDYPGPHSFDVSFQQSSTAKSATWTYSTELKKLYCQIAKTCPIQIKVMTPPPQGAVIRAMPVYKKAEHVTEVVKRCPNHELSREFNEGQIAPPSHLIRVEGNSHAQYVEDPITGRQSVLVPYEPPQVGTEFTTVLYNFMCNSSCVGGMNRRPILIIVTLETRDGQVLGRRCFEARICACPGRDRKADEDSIRKQQVSDSTKNGDGTKRPFRQNTHGIQMTSIKKRRSPDDELLYLPVRGRETYEMLLKIKESLELMQYLPQHTIETYRQQQQQQHQHLLQKQTSIQSPSSYGNSSPPLNKMNSMNKLPSVSQLINPQQRNALTPTTIPDGMGANIPMMGTHMPMAGDMNGLSPTQALPPPLSMPSTSHCTPPPPYPTDCSIVSFLARLGCSSCLDYFTTQGLTTIYQTEHYSMDDLASLKIPEQFRHAIWKGILDHRQLHEFSSPSHLLRTPSSASTVSVGSSETRGERVIDAVRFTLRQTISFPPRDEWNDFNFDMDARRNKQQRIKEEGE [I482T]
4,disrupting interaction strength,MLYLENNAQTQFSEPQYTNLGLLNSMDQQIQNGSSSTSPYNTDHAQNSVTAPSPYAQPSSTFDALSPSPAIPSNTDYPGPHSFDVSFQQSSTAKSATWTYSTELKKLYCQIAKTCPIQIKVMTPPPQGAVIRAMPVYKKAEHVTEVVKRCPNHELSREFNEGQIAPPSHLIRVEGNSHAQYVEDPITGRQSVLVPYEPPQVGTEFTTVLYNFMCNSSCVGGMNRRPILIIVTLETRDGQVLGRRCFEARICACPGRDRKADEDSIRKQQVSDSTKNGDGTKRPFRQNTHGIQMTSIKKRRSPDDELLYLPVRGRETYEMLLKIKESLELMQYLPQHTIETYRQQQQQQHQHLLQKQTSIQSPSSYGNSSPPLNKMNSMNKLPSVSQLINPQQRNALTPTTIPDGMGANIPMMGTHMPMAGDMNGLSPTQALPPPLSMPSTSHCTPPPPYPTDCSIVSFLARLGCSSCLDYFTTQGLTTIYLIEHYSMDDLASLKIPEQFRHAIWKGILDHRQLHEFSSPSHLLRTPSSASTVSVGSSETRGERVIDAVRFTLRQTISFPPRDEWNDFNFDMDARRNKQQRIKEEGE [Q481L]

# Variants of: B1
# Details: with roaa_human HNRNPAB
# Remark: another data set of the same source
# Target sequence in this assay (Q99729 whole entry): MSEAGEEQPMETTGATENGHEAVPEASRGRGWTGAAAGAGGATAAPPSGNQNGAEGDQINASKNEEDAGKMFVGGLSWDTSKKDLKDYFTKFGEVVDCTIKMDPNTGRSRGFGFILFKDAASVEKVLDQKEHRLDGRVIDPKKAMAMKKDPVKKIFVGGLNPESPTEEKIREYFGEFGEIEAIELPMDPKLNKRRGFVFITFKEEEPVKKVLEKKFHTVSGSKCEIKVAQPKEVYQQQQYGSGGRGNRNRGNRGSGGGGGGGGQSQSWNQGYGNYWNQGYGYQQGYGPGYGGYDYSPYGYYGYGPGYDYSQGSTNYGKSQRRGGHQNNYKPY
row,effect of a mutation on the interaction,Variant
1,disrupting interaction strength,MLYLENNAQTQFSEPQYTNLGLLNSMDQQIQNGSSSTSPYNTDHAQNSVTAPSPYAQPSSTFDALSPSPAIPSNTDYPGPHSFDVSFQQSSTAKSATWTYSTELKKLYCQIAKTCPIQIKVMTPPPQGAVIRAMPVYKKAEHVTEVVKRCPNHELSREFNEGQIAPPSHLIRVEGNSHAQYVEDPITGRQSVLVPYEPPQVGTEFTTVLYNFMCNSSCVGGMNRRPILIIVTLETRDGQVLGRRCFEARICACPGRDRKADEDSIRKQQVSDSTKNGDGTKRPFRQNTHGIQMTSIKKRRSPDDELLYLPVRGRETYEMLLKIKESLELMQYLPQHTIETYRQQQQQQHQHLLQKQTSIQSPSSYGNSSPPLNKMNSMNKLPSVSQLINPQQRNALTPTTIPDGMGANIPMMGTHMPMAGDMNGLSPTQALPPPLSMPSTSHCTPPPPYPTDCSIVSFFARLGCSSCLDYFTTQGLTTIYQIEHYSMDDLASLKIPEQFRHAIWKGILDHRQLHEFSSPSHLLRTPSSASTVSVGSSETRGERVIDAVRFTLRQTISFPPRDEWNDFNFDMDARRNKQQRIKEEGE [L459F]

# Variants of: B2
# Details: with rack1_human RACK1, P63244
row,effect of a mutation on the interaction,Variant
1,with no effect,L553F

# Variants of: B2
# Details: with roaa_human HNRNPAB
# Target sequence in this assay (Q99729 whole entry): as the sequence (Q99729 whole entry) above
row,effect of a mutation on the interaction,Variant
1,disrupting interaction strength,L553F

# Variants of: B2
# Details: with roaa_human HNRNPAB
# Remark: another data set of the same source
# Target sequence in this assay (Q99729 whole entry): as the sequence (Q99729 whole entry) above
row,effect of a mutation on the interaction,Variant
1,disrupting interaction strength,L553F
2,disrupting interaction strength,I576T
3,disrupting interaction strength,C561V
4,disrupting interaction strength,Q575L
5,disrupting interaction strength,G569V

# Variants of: B3
# Details: with scaf4_human SCAF4, O95104
row,effect of a mutation on the interaction,Variant
1,disrupting interaction strength,L553F
